Data taken from article PMC9482650, “Quantitative fragmentomics allow affinity mapping of interactomes” (Nature Communications, 2022).

T1: DLG3_2, Q92796
T1 sequence (Q92796 221-321, limits assumed, looked up): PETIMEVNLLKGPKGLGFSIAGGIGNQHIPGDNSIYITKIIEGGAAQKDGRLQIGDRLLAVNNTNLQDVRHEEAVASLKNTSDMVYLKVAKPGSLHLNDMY

T2: MPP7, Q5T2T1
T2 sequence (Q5T2T1 134-230, limits assumed, looked up): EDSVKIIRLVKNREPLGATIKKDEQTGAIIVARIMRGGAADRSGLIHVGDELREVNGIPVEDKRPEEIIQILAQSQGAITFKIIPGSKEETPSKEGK

T3: RAPGEF6, Q8TEU7
T3 sequence (Q8TEU7 525-625, limits assumed, looked up): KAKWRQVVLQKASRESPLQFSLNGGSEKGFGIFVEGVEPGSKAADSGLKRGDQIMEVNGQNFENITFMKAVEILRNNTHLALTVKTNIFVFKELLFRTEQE

T4: PDZRN3_1, Q9UPQ7
T4 sequence (Q9UPQ7 244-349, limits assumed, looked up): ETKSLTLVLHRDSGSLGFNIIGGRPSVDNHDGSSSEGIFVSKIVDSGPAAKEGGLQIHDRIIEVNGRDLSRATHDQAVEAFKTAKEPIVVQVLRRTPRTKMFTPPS

T5: SNTG2, Q9NY99
T5 sequence (Q9NY99 68-166, limits assumed, looked up): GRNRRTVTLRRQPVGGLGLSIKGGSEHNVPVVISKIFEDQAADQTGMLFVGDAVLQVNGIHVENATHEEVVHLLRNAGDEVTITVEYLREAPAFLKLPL

T6: LIN7A, O14910
T6 sequence (O14910 103-200, limits assumed, looked up): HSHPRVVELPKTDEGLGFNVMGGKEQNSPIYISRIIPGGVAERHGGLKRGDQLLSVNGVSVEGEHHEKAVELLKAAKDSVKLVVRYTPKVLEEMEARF

T7: HTRA4, P83105
T7 sequence (P83105 378-476, limits assumed, looked up): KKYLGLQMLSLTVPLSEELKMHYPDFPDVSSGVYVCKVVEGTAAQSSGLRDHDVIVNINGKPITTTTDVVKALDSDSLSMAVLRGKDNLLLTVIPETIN

T8: NHERF3_4, Q5T2W1
T8 sequence (Q5T2W1 373-468, limits assumed, looked up): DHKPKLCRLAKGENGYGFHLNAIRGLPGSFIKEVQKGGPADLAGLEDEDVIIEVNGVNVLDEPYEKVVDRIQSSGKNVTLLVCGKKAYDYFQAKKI

T9: PARD3B_1, Q8TEW8
T9 sequence (Q8TEW8 196-299, limits assumed, looked up): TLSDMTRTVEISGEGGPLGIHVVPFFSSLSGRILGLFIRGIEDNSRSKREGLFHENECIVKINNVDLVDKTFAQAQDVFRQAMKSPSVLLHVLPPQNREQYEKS

T10: SNTG1, Q9NSN8
T10 sequence (Q9NSN8 52-150, limits assumed, looked up): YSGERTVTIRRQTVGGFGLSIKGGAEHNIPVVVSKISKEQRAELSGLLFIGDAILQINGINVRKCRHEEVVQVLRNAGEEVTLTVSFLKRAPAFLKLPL


Columns and labels:
Experiment in all cases: holdup assay
Design in all cases: key: below the threshold = too weak to quantify, mostly under pKd 3.1 to 4
Conditions in all cases: plain residues with an end cap or a label only (N-terminal biotin on a linker: ttds)
DLG3_2, Q92796 = target: T1, DLG3_2, Q92796
NHERF2_2, Q15599 = target: NHERF2_2, Q15599
Chain of NHERF2_2, Q15599 (Q15599 142-238): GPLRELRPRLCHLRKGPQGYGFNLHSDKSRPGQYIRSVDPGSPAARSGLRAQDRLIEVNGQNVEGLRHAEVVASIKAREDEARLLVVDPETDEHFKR

MPP7, Q5T2T1 = target: T2, MPP7, Q5T2T1
GRIP2_7, Q9C0E4 = target: GRIP2_7, Q9C0E4
Chain of GRIP2_7, Q9C0E4 (Q9C0E4 934-1023): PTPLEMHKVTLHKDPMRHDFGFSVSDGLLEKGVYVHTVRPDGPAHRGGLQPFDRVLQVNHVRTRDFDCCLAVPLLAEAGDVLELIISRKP

IL16_3, Q14005 = target: IL16_3, Q14005
Chain of IL16_3, Q14005 (Q14005 1107-1207): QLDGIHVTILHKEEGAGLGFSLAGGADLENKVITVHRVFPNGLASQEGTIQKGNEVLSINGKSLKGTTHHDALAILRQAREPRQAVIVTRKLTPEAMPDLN

LIMK2, P53671 = target: LIMK2, P53671
Chain of LIMK2, P53671 (P53671 143-248): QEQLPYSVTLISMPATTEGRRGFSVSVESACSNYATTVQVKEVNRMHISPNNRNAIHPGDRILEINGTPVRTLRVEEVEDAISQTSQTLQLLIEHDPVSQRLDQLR

MAGI1_2, Q96QZ7 = target: MAGI1_2, Q96QZ7
Chain of MAGI1_2, Q96QZ7 (Q96QZ7 456-580): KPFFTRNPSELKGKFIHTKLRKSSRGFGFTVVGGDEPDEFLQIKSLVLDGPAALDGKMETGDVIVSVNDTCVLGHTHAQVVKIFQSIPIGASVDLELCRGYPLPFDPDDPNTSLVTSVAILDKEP

Inadl_3, Q8NI35 = target: Inadl_3, Q8NI35
Chain of Inadl_3, Q8NI35 (Q8NI35 359-469): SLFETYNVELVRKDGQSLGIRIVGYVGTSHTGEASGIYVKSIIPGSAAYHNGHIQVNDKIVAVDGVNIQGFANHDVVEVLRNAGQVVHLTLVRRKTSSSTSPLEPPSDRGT

RAPGEF6, Q8TEU7 = target: T3, RAPGEF6, Q8TEU7
Inadl_9, Q8NI35 = target: Inadl_9, Q8NI35
Chain of Inadl_9, Q8NI35 (Q8NI35 1530-1615): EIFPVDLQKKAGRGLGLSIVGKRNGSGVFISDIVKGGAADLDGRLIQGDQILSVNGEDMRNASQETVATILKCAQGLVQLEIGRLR

SCRIB_3, Q14160 = target: SCRIB_3, Q14160
Chain of SCRIB_3, Q14160 (Q14160 999-1103): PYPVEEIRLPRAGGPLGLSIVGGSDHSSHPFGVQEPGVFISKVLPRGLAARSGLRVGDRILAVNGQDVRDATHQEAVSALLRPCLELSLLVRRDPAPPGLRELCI

PDZRN3_1, Q9UPQ7 = target: T4, PDZRN3_1, Q9UPQ7
SNTG2, Q9NY99 = target: T5, SNTG2, Q9NY99
LIN7A, O14910 = target: T6, LIN7A, O14910
NHERF4_2, Q86UT5 = target: NHERF4_2, Q86UT5
Chain of NHERF4_2, Q86UT5 (Q86UT5 220-308): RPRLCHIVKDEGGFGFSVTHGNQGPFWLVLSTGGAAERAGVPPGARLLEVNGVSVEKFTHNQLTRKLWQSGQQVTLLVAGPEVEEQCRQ

HTRA4, P83105 = target: T7, HTRA4, P83105
NHERF3_4, Q5T2W1 = target: T8, NHERF3_4, Q5T2W1
LNX1_1, Q8TBB1 = target: LNX1_1, Q8TBB1
Chain of LNX1_1, Q8TBB1 (Q8TBB1 261-371): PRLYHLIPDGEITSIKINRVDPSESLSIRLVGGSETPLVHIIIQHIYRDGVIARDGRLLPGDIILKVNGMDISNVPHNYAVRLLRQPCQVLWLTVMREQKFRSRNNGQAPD

PARD3B_1, Q8TEW8 = target: T9, PARD3B_1, Q8TEW8
MAGI2_3, Q86UL8 = target: MAGI2_3, Q86UL8
Chain of MAGI2_3, Q86UL8 (Q86UL8 600-682): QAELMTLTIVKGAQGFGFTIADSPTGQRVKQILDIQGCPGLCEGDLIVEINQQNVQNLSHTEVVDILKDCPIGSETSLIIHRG

MAGI2_5, Q86UL8 = target: MAGI2_5, Q86UL8
Chain of MAGI2_5, Q86UL8 (Q86UL8 915-1017): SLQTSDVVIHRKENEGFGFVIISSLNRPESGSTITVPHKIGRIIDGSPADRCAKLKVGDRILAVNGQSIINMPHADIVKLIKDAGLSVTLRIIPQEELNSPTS

PICK1, Q9NRD5 = target: PICK1, Q9NRD5
Chain of PICK1, Q9NRD5 (Q9NRD5 17-115): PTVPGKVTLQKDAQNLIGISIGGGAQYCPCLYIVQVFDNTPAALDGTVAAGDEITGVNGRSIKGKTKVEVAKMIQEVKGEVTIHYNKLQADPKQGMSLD

MAST1, Q9Y2H9 = target: MAST1, Q9Y2H9
Chain of MAST1, Q9Y2H9 (Q9Y2H9 962-1065): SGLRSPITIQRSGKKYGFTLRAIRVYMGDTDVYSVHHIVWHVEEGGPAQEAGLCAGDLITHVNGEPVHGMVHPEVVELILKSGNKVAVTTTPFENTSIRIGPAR

FRMPD4, Q14CM0 = target: FRMPD4, Q14CM0
Chain of FRMPD4, Q14CM0 (Q14CM0 67-160): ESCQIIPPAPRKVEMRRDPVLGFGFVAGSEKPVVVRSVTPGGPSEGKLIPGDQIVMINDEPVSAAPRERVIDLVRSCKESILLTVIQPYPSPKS

DLG4_1, P78352 = target: DLG4_1, P78352
Chain of DLG4_1, P78352 (P78352 62-152): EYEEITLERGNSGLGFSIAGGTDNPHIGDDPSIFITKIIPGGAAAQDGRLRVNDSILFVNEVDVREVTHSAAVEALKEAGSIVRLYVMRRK

SNTG1, Q9NSN8 = target: T10, SNTG1, Q9NSN8
HTRA1, Q92743 = target: HTRA1, Q92743
Chain of HTRA1, Q92743 (Q92743 360-477): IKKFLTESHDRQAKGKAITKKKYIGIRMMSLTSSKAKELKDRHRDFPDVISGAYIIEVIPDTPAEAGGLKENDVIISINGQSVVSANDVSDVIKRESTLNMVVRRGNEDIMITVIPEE

Row | Binder | pKd (DLG3_2, Q92796) | pKd (NHERF2_2, Q15599) | pKd (MPP7, Q5T2T1) | pKd (GRIP2_7, Q9C0E4) | pKd (IL16_3, Q14005) | pKd (LIMK2, P53671) | pKd (MAGI1_2, Q96QZ7) | pKd (Inadl_3, Q8NI35) | pKd (RAPGEF6, Q8TEU7) | pKd (Inadl_9, Q8NI35) | pKd (SCRIB_3, Q14160) | pKd (PDZRN3_1, Q9UPQ7) | pKd (SNTG2, Q9NY99) | pKd (LIN7A, O14910) | pKd (NHERF4_2, Q86UT5) | pKd (HTRA4, P83105) | pKd (NHERF3_4, Q5T2W1) | pKd (LNX1_1, Q8TBB1) | pKd (PARD3B_1, Q8TEW8) | pKd (MAGI2_3, Q86UL8) | further results
1 | SSLQSLETSV [ATP2B4, P23634] | 5.2 | 3.84 | below the threshold | 3.52 | below the threshold | below the threshold | 3.68 | 3.56 | 3.72 | below the threshold | 5.11 | 5.15 | 4.89 | 4.04 | below the threshold | 3.6 | 3.63 | 3.71 | below the threshold | 4.2 | pKd (MAGI2_5, Q86UL8): 4.6; pKd (PICK1, Q9NRD5): 3.76; pKd (MAST1, Q9Y2H9): 5.26; pKd (FRMPD4, Q14CM0): below the threshold; pKd (DLG4_1, P78352): 4.78; pKd (SNTG1, Q9NSN8): 5.08; pKd (HTRA1, Q92743): 3.9
2 | KKYVDAETSL [SLC4A7, Q9Y6M7] | 3.91 | 4.62 | below the threshold | below the threshold | below the threshold | below the threshold | 3.69 | below the threshold | below the threshold | below the threshold | 5.09 | 4.57 | 4.33 | below the threshold | below the threshold | below the threshold | below the threshold | below the threshold | 3.65 | below the threshold | pKd (MAGI2_5, Q86UL8): 3.52; pKd (PICK1, Q9NRD5): below the threshold; pKd (MAST1, Q9Y2H9): 5.32; pKd (FRMPD4, Q14CM0): 4.4; pKd (DLG4_1, P78352): 3.73; pKd (SNTG1, Q9NSN8): 3.82; pKd (HTRA1, Q92743): 3.71
3 | RLQRRRETQV [HPV18-E6, P06463] | 5.46 | below the threshold | below the threshold | below the threshold | below the threshold | below the threshold | 5.97 | below the threshold | below the threshold | below the threshold | 4.84 | 4.82 | 4.03 | 3.4 | below the threshold | below the threshold | below the threshold | below the threshold | below the threshold | 4.15 | pKd (MAGI2_5, Q86UL8): 3.78; pKd (PICK1, Q9NRD5): below the threshold; pKd (MAST1, Q9Y2H9): 5.33; pKd (FRMPD4, Q14CM0): below the threshold; pKd (DLG4_1, P78352): 5.11; pKd (SNTG1, Q9NSN8): 3.93; pKd (HTRA1, Q92743): below the threshold
4 | RHTTSTETAV [HPV30-E6, P36809] | 5.41 | below the threshold | below the threshold | 3.84 | below the threshold | 3.85 | 4.39 | 3.77 | below the threshold | below the threshold | 5.02 | 4.68 | 4.67 | 3.8 | below the threshold | below the threshold | below the threshold | below the threshold | below the threshold | 4.57 | pKd (MAGI2_5, Q86UL8): 4.31; pKd (PICK1, Q9NRD5): below the threshold; pKd (MAST1, Q9Y2H9): 4.66; pKd (FRMPD4, Q14CM0): below the threshold; pKd (DLG4_1, P78352): 4.92; pKd (SNTG1, Q9NSN8): 4.94; pKd (HTRA1, Q92743): 3.73
